Common to all, as to assay: stopped-flow fluorescence; association: 25 nM fluorescein-labelled APC mixed 1:1 by volume with 250-2,000 nM β-catenin (pseudo first-order); dissociation: pre-formed 1:1 complex (200 nM) mixed with 10 times molar excess of the same APC construct; PBS, 1 mM DTT; 15°C
Experiment [1] addresses pAPCabc D1486S, fluorescein-labelled at Cys 1501 (UniProt P25054).
Experiment [2] deals with APCabc, third 20aa repeat (R3) region of APC with subdomains a, b and c, fluorescein-labelled at Cys 1501 (UniProt P25054).
Experiment [3] has as its target pAPCabc with the polyproline linker (PP) inserted between residues 1,500 and 1,501, fluorescein-labelled at Cys 1501 (UniProt P25054).
In experiment [4] the target is APCabc with the flexible linker (FL) inserted between residues 1,500 and 1,501, fluorescein-labelled at Cys 1501 (UniProt P25054).
Experiment [5] deals with APCabc with the flexible linker (FL) inserted between residues 1,478 and 1,479, fluorescein-labelled at Cys 1501 (UniProt P25054).
The target of experiment [6] is APCbc, APC R3 subdomains b and c (residues 1,483–1,533), fluorescein-labelled at Cys 1501 (UniProt P25054).

Sequence of armadillo (ARM) repeat domain of human β-catenin (residues 134–671) (P35222 other isoform, or with tags, fused parts or gaps): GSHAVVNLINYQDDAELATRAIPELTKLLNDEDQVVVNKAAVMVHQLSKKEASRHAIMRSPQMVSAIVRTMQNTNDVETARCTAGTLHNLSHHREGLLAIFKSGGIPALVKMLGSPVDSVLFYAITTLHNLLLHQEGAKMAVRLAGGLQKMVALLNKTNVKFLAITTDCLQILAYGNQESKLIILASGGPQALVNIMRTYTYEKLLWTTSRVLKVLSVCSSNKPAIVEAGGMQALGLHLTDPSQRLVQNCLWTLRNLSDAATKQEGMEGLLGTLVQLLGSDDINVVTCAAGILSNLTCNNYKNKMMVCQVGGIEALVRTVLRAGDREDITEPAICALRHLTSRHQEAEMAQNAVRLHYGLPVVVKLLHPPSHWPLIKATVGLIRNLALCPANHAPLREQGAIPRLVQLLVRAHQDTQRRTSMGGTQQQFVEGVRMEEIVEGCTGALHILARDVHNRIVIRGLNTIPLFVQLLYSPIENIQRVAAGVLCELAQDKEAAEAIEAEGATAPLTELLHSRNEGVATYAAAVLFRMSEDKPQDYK

In general, kon refers to the rate constant with which the complex forms. A higher kon goes with faster complex formation. Take “armadillo (ARM) repeat domain of human β-catenin (residues 134–671) (from UniProt P35222 134-671) (domain or fragment)”: the koff fast in experiment [1] was 2.89 s⁻¹; in experiment [2] it was 0.46 s⁻¹; in experiment [3], 0.44 s⁻¹; in experiment [4] it was 0.45 s⁻¹; in experiment [5] it was 0.77 s⁻¹; in experiment [6] it was 0.73 s⁻¹. Moreover, the koff slow in experiment [1] is 0.4 s⁻¹; in experiment [2], 0.11 s⁻¹; in experiment [3] it was 0.018 s⁻¹; in experiment [4] it was 0.1 s⁻¹; in experiment [5] it was 0.177 s⁻¹. Also, the kon in experiment [1] was 1.51e+08 M⁻¹ s⁻¹; in experiment [2] it was 4.92e+07 M⁻¹ s⁻¹; in experiment [3], 8.97e+07 M⁻¹ s⁻¹; in experiment [4] it was 2.41e+07 M⁻¹ s⁻¹; in experiment [5], 8.35e+07 M⁻¹ s⁻¹; in experiment [6], 1.48e+07 M⁻¹ s⁻¹. The time constant τ (from the fast off-rate) in experiment [1] is 0.24 s; in experiment [2], 1.54 s; in experiment [3] it was 1.59 s; in experiment [4], 1.54 s; in experiment [5], 0.9 s; in experiment [6], 0.96 s.

The record behind these values is publication PMC9214244, “Multivalent Interaction of Beta-Catenin With its Intrinsically Disordered Binding Partner Adenomatous Polyposis Coli” (Frontiers in Molecular Biosciences, 2022).
